The target in the experiment is bone morphogenetic protein 6 (UniProt P22004). As to the kind of experiment: cell-based or functional assay.
Chain of UniProt P22004 (P22004 382-513 limits assumed): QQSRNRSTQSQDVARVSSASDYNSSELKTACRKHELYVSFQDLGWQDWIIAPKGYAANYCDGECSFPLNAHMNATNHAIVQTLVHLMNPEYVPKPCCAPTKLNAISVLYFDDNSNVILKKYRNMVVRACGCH

“mouse noggin (from UniProt P97466 28-232)” registered a BMP-6 stimulated alkaline phosphatase activity in mouse mesenchymal C3H10T1/2 cells (IC50) of 0.3 µg/mL.

For the origin of these results see patent publication US20030229041A1.
